For three molecules, Kd results are on record in US20210284746A1 (NGM BIOPHARMACEUTICALS, published 2021).

B1: 13G9 (antibody, V domains shown)
VH: QVQLQQSGAELVRPGTSVKISCKASGYTFTNYWLGWVKQRPGHGLEWIGDIYPGGDYNNYNGKFKGKATLTADTSSSTAYIQLSSLTSEDSAVYFCVRSDDGYSWGQGTTLTVSS
VL: DVLMTQTPLSLPVSLGDQASISCRSSQSIVDSYGNTYLEWYQQKPGQSPTLLIYKVSNRFAGVPDRFSGSGSGTDFTLKISRVEAEDLGVYYCFQGSHIPWTFGGGTKVEIK
notes: Mouse hybridoma antibody, purified; also called anti-GCGR antibody 13G9
B2: 6B5 (antibody, V domains shown)
VH: QVQLQQSGTELVRPGTSVKISCKASGFTFTNHWLGWVKQRPGHGLEWIGDIYPGGYYINYNEKFKGKATLTADTSSSTAYMQLSSLTSEDSAVYFCARHTNYGSDYWGQGTTLTVSS
VL: DVLMTQIPLSLPVSLGDQASISCRSSQSIVDSYGNTFLEWYLQKPGQSPKLLIYKVSNRLSGVPDRFSGTGAGTDFTLKISRVEAEDLGIYYCFQGSHVPWTFGGGTKLEIK
notes: Mouse hybridoma antibody, purified; also called anti-GCGR antibody 6B5
B3: 14F4 (antibody, V domains shown)
VH: QVQLQQSGAELVRPGTSVNMSCKATGYTFTNYWIGWVKQRPGHGLEWIGDIFPGGFYSNYNEKFKGKATLTTDTSSSTGYMQLSSLTSEDSAIYYCARIWDRGFDYWGQGTTLTVSS
VL: DVLMTQSPLSLPVSLGDQASISCRSSQSIVDSYGNTYLEWYLQKPGQSPKLLIYKVSNRFSGVPDRFSGSGSGTDFTLKISRVEAEDRGLYYCFQGSHVPYTFGGGTKLEIK
notes: Mouse hybridoma antibody, purified; also called anti-GCGR antibody 14F4

In this assay the target is T1, soluble human GCGR extracellular domain (human, UniProt P47871 26-136, limits assumed).
T1 construct: also called soluble GCGR; glucagon receptor extracellular domain
T1 sequence (P47871 26-136 limits assumed): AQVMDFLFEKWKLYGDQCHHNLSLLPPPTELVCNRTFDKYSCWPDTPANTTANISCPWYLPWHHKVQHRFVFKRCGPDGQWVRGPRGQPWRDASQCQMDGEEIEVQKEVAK
Description: SPR (Biacore), purified antibody re-tested; format as described for the screen: antibody captured by anti-mouse Fc, soluble human GCGR extracellular domain as analyte, 25 C. As to the method: In addition, supernatants were screened for binding to human GCGR using a Biacore SPR system. Briefly, anti-mouse Fc antibody (Sigma-Aldrich) was immobilized on all four flow cells of a CM5 chip using amine coupling reagents (GE Healthcare LifeSciences). Hybridoma supernatants were diluted three-fold with PBS-P buffer (PBS containing 0.005% P20-PBS-P) and injected for 30 seconds over flow cells 2, 3 and 4 to capture the test antibodies and using flow cell 1 as a reference. The next step was an injection of soluble human GCGR extracellular domain (100 nM in PBS-P buffer) at a flow rate of 50 μL/min and monitoring of the binding kinetics at 25° C. Kinetic data were collected over time and fit using the simultaneous global fit equation to yield affinity constants (KD values) for each antibody.
Usually Kd stands for a measure of binding affinity in units of concentration. Low values mean a tighter complex, high ones a looser complex. Take B1: the dissociation constant (Kd) was 0.2 nM. This lies in the sub-nanomolar range.
In the case of B2, the Kd came out at 0.2 nM. This lies in the sub-nanomolar range.
In the case of B3, binding was characterised by a dissociation constant (Kd) of 0.6 nM.
